# What was measured:
# [1] = target: SARS-CoV-2 spike protein (full length, wild type) (SARS-CoV-2, UniProt P0DTC2 14-1273); assay: cell-based or functional assay
# [2] = target: SARS-CoV-2 spike receptor binding domain (RBD) (SARS-CoV-2, UniProt P0DTC2 319-541); assay: RBD/ACE2 competition; RBD binding to ACE2 on HEK-293 cells
binder,measurement,setting,value
"8A1 (antibody, V domains shown) VH: EVQLQESGGGLVQPGGSLKLSCAASGFTFSSYTMSWVRQTPEKRLEWVAYISNGGGSISYPDTVKGRFTISRDNAKNTLYLHMSSLKSEDTAMYHCAREGLRPGDRDRYYAMDYWGQGTSVTVSS VL: DIVITQSPALMAAFPGDRVTITCSVSSSVSSSNLHWYRQKSETSPKPWIYGTSTLASGVPVRFSGSGSGTSYSLTISSMEAEDAATYYCQQWSSYPLTFGAGTKLELKR",EC50 (pM),[1],96 pM
same,ACE2 Inhibition (%),[2],95%
